Results published in PMC11109957.

Target: OGG1 (UniProt O15527)
Assay: co-IP, Western blot
Conditions: reference: wild type, KBrO3; sites S46,S53

SIRT2 (from UniProt Q8IXJ6) S46AS53A, KBrO3
binding against the reference: weaker
